Measured values as given in the supplement of paper PMC10065799, “High-throughput profiling of sequence recognition by tyrosine kinases and SH2 domains using bacterial peptide display” (eLife, 2023).

Assays:
AncSZ = experiment: phosphorylation enrichment, bacterial display (enrichment ratio); higher = better substrate or ligand; peptides without Tyr show the background
EPHB1 = EPHB1 (UniProt P54762); experiment: as above
EPHB2 = EPHB2 (UniProt P29323); experiment: as above
FGFR1 = FGFR1 (UniProt P11362); experiment: as above
FGFR3 = FGFR3 (UniProt P22607); experiment: as above
Fer (mouse) = experiment: as above
Fes = Fes (UniProt P07332); experiment: as above
Fyn = Fyn (UniProt P06241); experiment: as above
Hck = Hck (UniProt P08631); experiment: as above
Jak2 = Jak2 (UniProt O60674); experiment: as above
MERTK = MERTK (UniProt Q12866); experiment: as above
c-Abl (mouse) = experiment: as above
c-Src = experiment: as above
Grb2 SH2 = Grb2 SH2 (UniProt P62993); experiment: SH2 binding enrichment of the phosphorylated peptide, bacterial display (enrichment ratio); higher = better substrate or ligand; peptides without Tyr show the background
SHP2-C SH2 = experiment: as above
c-Src SH2 = experiment: as above
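For SH2 binding enrichment of the phosphorylated peptide, bacterial display in this document: peptide library displayed on the E. coli surface as eCPX fusions, selected cells deep-sequenced, score is each peptide's frequency after selection divided by its frequency in the input.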
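For phosphorylation enrichment, bacterial display in this document: 11-residue human phosphosite peptides and single-mutation variants displayed on the E. coli surface, counted by deep sequencing, each peptide's frequency after selection divided by its frequency in the unselected input library; frequency after pTyr selection over input frequency; kinase dosed for 20-30% of maximal phosphorylation in three min.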

Jak2, sequence (O60674 whole entry, looked up): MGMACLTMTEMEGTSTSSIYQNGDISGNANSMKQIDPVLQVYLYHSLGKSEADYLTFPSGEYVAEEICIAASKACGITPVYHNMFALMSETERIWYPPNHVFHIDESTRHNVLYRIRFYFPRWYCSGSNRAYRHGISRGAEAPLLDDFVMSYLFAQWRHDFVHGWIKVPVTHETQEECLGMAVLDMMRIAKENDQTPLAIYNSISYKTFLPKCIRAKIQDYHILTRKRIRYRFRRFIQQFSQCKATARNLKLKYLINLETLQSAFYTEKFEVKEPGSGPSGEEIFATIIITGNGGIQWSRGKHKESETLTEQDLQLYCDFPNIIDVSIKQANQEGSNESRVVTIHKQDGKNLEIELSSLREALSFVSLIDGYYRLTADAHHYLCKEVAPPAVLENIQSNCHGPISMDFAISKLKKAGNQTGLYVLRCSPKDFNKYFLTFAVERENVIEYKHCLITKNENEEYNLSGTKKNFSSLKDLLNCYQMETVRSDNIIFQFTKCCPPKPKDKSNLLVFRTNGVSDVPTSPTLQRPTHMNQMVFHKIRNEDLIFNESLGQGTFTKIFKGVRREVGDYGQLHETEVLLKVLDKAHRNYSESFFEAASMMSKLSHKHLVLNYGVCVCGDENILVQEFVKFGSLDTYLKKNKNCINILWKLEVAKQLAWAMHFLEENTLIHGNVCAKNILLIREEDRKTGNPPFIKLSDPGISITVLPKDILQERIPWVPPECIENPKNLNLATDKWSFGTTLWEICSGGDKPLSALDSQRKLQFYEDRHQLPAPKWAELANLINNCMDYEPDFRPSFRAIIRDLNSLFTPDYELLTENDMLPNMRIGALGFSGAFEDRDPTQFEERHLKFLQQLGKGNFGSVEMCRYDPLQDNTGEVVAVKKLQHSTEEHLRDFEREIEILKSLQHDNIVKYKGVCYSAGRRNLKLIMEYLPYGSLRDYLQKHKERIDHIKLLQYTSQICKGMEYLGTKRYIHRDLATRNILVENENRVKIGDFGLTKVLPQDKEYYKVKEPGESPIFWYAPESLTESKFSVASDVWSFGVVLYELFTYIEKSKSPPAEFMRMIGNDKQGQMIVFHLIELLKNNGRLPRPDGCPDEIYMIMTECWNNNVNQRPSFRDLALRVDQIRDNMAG
FGFR3, sequence (P22607 whole entry, looked up): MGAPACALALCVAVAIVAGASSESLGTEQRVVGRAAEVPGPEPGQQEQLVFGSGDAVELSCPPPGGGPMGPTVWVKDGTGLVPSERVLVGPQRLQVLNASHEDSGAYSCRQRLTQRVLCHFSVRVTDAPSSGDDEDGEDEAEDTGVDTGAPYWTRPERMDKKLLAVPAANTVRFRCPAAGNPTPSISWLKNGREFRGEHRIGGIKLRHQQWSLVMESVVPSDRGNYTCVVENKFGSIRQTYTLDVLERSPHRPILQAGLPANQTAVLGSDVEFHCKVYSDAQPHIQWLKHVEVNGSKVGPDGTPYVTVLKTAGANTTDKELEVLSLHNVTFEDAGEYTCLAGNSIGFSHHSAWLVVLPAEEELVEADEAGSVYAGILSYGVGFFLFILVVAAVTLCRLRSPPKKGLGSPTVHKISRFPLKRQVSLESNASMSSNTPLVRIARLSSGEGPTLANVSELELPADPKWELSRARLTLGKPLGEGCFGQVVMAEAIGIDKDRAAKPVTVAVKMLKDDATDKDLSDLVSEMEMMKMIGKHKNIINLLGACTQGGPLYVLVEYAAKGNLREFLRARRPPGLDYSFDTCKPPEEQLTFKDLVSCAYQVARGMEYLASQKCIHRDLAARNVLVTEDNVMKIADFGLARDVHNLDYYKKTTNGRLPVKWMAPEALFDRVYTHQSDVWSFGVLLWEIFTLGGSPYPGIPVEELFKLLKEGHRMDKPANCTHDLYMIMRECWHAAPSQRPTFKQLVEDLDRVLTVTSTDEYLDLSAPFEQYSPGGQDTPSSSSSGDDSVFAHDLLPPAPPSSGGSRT
MERTK, sequence (Q12866 whole entry, looked up): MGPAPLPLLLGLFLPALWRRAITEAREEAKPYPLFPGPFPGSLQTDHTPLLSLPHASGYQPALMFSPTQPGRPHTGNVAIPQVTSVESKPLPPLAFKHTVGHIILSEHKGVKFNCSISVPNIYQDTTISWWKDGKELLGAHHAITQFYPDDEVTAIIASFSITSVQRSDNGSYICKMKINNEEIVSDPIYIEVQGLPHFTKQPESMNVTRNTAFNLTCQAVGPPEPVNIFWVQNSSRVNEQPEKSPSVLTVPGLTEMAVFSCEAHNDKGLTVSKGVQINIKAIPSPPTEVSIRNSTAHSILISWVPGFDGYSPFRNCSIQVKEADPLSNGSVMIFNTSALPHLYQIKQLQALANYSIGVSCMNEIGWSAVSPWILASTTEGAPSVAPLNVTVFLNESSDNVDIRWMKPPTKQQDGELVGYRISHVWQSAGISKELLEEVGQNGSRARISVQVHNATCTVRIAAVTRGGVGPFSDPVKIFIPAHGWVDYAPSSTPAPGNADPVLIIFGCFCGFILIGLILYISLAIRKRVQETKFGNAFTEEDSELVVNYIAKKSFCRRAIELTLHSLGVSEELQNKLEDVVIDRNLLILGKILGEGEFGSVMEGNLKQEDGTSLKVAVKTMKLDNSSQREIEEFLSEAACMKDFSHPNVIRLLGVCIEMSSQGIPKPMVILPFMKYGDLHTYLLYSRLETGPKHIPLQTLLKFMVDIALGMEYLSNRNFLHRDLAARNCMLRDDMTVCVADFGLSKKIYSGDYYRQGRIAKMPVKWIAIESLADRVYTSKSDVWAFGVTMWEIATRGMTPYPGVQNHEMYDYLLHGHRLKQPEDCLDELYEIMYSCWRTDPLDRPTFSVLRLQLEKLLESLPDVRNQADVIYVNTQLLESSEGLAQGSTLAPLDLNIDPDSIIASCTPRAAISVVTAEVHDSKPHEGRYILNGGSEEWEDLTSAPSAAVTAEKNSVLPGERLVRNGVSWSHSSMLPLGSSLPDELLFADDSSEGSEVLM
Hck, sequence (P08631 whole entry, looked up): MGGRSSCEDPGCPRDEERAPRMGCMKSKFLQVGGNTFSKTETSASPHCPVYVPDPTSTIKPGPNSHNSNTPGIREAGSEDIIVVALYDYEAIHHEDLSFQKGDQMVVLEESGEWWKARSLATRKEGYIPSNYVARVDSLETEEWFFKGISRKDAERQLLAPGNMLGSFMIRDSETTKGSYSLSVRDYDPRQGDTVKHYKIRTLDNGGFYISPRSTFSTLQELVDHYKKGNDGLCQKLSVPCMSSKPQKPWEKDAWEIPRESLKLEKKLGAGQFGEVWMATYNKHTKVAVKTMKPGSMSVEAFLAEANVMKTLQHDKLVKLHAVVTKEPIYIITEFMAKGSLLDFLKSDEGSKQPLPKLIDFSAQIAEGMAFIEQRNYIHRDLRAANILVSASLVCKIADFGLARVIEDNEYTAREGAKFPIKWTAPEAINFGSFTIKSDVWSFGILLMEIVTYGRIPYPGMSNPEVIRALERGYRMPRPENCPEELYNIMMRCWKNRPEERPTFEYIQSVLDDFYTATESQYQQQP
FGFR1, sequence (P11362 whole entry, looked up): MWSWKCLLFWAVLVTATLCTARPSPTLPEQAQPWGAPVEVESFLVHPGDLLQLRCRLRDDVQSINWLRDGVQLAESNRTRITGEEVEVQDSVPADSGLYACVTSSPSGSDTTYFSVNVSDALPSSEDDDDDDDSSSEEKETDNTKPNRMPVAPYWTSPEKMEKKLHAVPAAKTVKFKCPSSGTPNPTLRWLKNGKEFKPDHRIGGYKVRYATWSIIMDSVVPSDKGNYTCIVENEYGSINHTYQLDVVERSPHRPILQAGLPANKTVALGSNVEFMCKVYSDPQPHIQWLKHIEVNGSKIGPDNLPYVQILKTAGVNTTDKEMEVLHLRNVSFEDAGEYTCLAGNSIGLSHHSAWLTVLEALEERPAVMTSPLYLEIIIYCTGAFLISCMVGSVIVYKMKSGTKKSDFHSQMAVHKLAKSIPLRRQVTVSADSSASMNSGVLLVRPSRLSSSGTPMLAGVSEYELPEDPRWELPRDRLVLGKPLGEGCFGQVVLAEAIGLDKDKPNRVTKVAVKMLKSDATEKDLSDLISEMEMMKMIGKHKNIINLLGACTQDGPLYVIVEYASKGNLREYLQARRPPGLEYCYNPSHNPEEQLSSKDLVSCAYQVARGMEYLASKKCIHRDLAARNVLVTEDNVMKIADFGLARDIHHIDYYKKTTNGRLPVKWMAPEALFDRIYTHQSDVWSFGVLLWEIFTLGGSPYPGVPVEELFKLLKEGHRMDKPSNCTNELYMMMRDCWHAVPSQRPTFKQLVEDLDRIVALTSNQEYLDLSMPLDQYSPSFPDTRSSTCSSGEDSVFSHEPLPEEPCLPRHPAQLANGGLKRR
Fyn, sequence (P06241 whole entry, looked up): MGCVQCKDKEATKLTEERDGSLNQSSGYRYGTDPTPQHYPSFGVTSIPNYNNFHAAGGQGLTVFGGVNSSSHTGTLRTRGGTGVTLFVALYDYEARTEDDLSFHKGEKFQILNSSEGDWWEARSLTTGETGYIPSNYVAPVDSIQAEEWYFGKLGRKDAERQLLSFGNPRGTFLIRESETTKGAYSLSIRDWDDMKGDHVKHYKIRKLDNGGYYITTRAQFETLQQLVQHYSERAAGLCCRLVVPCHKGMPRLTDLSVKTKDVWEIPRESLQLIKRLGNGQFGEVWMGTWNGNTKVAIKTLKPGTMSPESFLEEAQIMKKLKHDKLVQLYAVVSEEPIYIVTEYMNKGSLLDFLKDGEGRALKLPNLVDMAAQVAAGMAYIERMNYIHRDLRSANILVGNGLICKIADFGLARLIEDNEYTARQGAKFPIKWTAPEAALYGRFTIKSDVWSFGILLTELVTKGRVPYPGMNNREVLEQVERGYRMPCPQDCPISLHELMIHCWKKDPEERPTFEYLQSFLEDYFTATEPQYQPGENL

SH2 binding enrichment (Grb2 SH2)	SH2 binding enrichment (SHP2-C SH2)	SH2 binding enrichment (c-Src SH2)	Sequence	phosphorylation enrichment (AncSZ)	phosphorylation enrichment (EPHB1)	phosphorylation enrichment (EPHB2)	phosphorylation enrichment (FGFR1)	phosphorylation enrichment (FGFR3)	phosphorylation enrichment (Fer (mouse))	phosphorylation enrichment (Fes)	phosphorylation enrichment (Fyn)	phosphorylation enrichment (Hck)	phosphorylation enrichment (Jak2)	phosphorylation enrichment (MERTK)	phosphorylation enrichment (c-Abl (mouse))	phosphorylation enrichment (c-Src)
1.48	0.731	0.395	LTRDIYKNDFF [ROS1_Y2110_A2106T_YF]	0.974	0.683	0.495	1.05	0.963	0.937	1.07	0.836	0.717	0.79	0.723	0.673	0.475
1.28	1.05	1.07	CKRQFYLFKGK [RSPO4_Y112_YF]	0.863	0.385	0.546	0.446	0.591	0.403	1.01	0.431	0.4	0.745	0.489	0.497	0.377
0.923	0.828	1.25	PSQRRNVYYYS [PTEN_Y174_Y174N]	0.567	0.397	0.657	1.36	1.41	0.568	0.838	0.837	0.74	0.916	4.42	0.47	0.9
0.742	0.557	0.509	TQFWLYFAGNL [SLC25A5_Y112]	1.23	0.681	0.665	0.534	1	0.498	1.57	0.376	0.479	1.64	0.576	1.22	0.652
1.76	1.75	1.53	KMKGDYYRYLA [YWHAG_Y130]	0.647	1.45	1.36	8.74	5.52	0.393	0.747	0.594	0.816	2.55	2.1	0.705	0.73
1.36	0.933	1.36	CTTIHHNFMCN [TP53_Y234_Y234H_YF]	0.713	0.482	0.51	0.525	0.641	0.483	0.844	0.453	0.436	0.606	0.377	0.478	0.362
0.835	0.813	0.516	KDHPDYKFQAR [SOX10_Y171_P175A_YF]	0.757	0.409	0.408	0.466	0.489	0.485	0.658	0.458	0.482	0.559	0.405	0.626	0.489
1.2	2.73	6.1	CTTIHYDFMCN [TP53_Y234_N235D_YF]	1.16	0.681	0.514	0.544	0.764	1.05	1.03	0.644	0.656	0.873	0.49	0.704	0.545
0.652	0.726	0.978	LSRDVYEEDSY [RET_Y900]	1.39	0.535	0.685	0.656	0.968	0.416	1.39	0.503	0.771	1.55	0.699	0.906	0.719
0.892	0.502	0.816	QNTVDYYDLYG [PTPN11_Y62_G60V]	2.72	4.44	3.38	18.4	15.4	1.1	1.66	6.01	6.03	2.63	1.33	1.38	5.35
0.711	0.681	0.503	KRIKSYNQEND [RPGRIP1L_Y448_L447S]	0.436	0.442	0.341	0.396	0.395	0.416	0.53	0.358	0.33	0.466	0.43	0.454	0.409
0.569	0.545	0.426	DDFDLYGGEKF [PTPN11_Y66_Y62D_YF]	1.28	0.639	0.659	0.585	0.727	1.72	1.38	2.27	3.11	1.2	0.475	0.731	2.14
0.968	0.733	0.692	SVCPDYDLCSI [SQSTM1_Y148_V153I]	1.72	0.942	0.914	0.709	0.763	2.9	1.16	0.868	0.599	1.11	0.616	0.876	0.801
1.08	0.854	2.49	NTGNYYDLYGG [PTPN11_Y63_D61N]	1.73	18.3	20.1	15.7	12.6	2.82	0.984	6.39	6.84	2.42	9.28	1.01	5.29
1.31	1.18	1.28	WLQKLYNNFVN [MYO5C_Y526]	1.25	0.528	0.57	0.459	0.774	0.483	1.4	0.472	0.655	1	0.429	0.874	0.501
0.794	0.757	0.563	HTLMKYTDGDQ [PUS7L_Y94_I92M]	1.34	1.17	0.634	0.813	0.897	0.666	1.48	0.595	0.682	1.26	0.463	1.08	0.788
0.896	0.906	0.691	YSQNIYIQNRN [PKP2_Y631]	0.804	0.424	0.569	0.482	0.483	0.489	0.706	0.443	0.633	0.59	1.43	0.6	0.528
1.67	1.99	1.23	LMVFEYMRHGD [NTRK1_Y591]	0.845	0.646	0.847	0.5	0.756	0.614	1.08	0.604	0.931	1	0.426	0.457	0.34

The remaining lines, values behind:

Sequence	SH2 binding enrichment (Grb2 SH2)	SH2 binding enrichment (SHP2-C SH2)	SH2 binding enrichment (c-Src SH2)	phosphorylation enrichment (AncSZ)	phosphorylation enrichment (EPHB1)	phosphorylation enrichment (EPHB2)	phosphorylation enrichment (FGFR1)	phosphorylation enrichment (FGFR3)	phosphorylation enrichment (Fer (mouse))	phosphorylation enrichment (Fes)	phosphorylation enrichment (Fyn)	phosphorylation enrichment (Hck)	phosphorylation enrichment (Jak2)	phosphorylation enrichment (MERTK)	phosphorylation enrichment (c-Abl (mouse))	phosphorylation enrichment (c-Src)
NQSVRYDSSLK [ABCC8_Y1353_L1349Q]	0.675	0.609	0.404	0.523	0.484	0.491	0.341	0.456	0.57	0.601	0.461	0.429	0.556	0.423	0.487	0.433
VTAALYGCLFE [BTD_Y536_R538C_YF]	0.85	0.606	0.52	1.3	0.916	1.03	0.602	0.998	1.1	1.55	5.63	3.97	1.13	1.54	1.02	4.03
VIKDKYPKARY [APTX_Y209]	1.31	1.05	1.25	0.728	0.376	0.417	0.44	0.551	0.426	0.699	0.256	0.373	0.83	0.38	0.692	0.454
HLNLTYRILSF [MMP23B_Y95_F91L]	1.03	0.624	0.474	1.43	0.673	0.664	0.645	1.27	0.605	1.68	0.694	0.54	1.51	0.42	1.08	0.491
IVKAYYVRARA [AIPL1_Y268]	0.976	0.923	0.521	1.01	0.358	0.47	0.466	0.471	0.396	0.936	0.466	0.419	0.743	0.502	0.512	0.361
ETGNLYIAKVE [CNTN4_Y180]	0.705	0.533	0.276	0.896	0.522	0.52	0.405	0.62	0.441	0.89	0.448	0.479	0.757	0.336	0.635	0.391
INQGPYENHSV [ATP6V1B1_Y462_R465H]	4.77	0.777	2.07	0.646	0.436	0.639	0.441	0.524	9.94	0.804	0.471	0.4	0.68	0.55	0.54	0.524
FKNGDYSEVMK [LCT_Y1638_N1639S]	1.11	0.739	1.84	0.697	0.859	0.877	0.57	0.468	0.362	0.709	0.42	0.413	0.686	0.433	0.429	0.574
NACGLYFKLHN [GATA2_Y376_YF]	0.899	0.686	0.449	1.26	0.552	0.496	0.437	0.722	0.425	0.979	0.427	0.491	1.21	0.466	0.784	0.358
NGTVTYAIIAG [CDH23_Y1672_V1675I]	0.78	16.6	1.43	1.1	2.83	1.12	0.628	0.746	0.503	1.28	0.968	1.31	0.989	2.68	0.892	1.33
DHYNQYEQQKM [CHD7_Y75]	0.56	0.824	0.472	0.844	0.444	0.402	0.438	0.524	0.451	0.728	0.639	0.434	0.782	0.359	0.445	0.478
PKEQKYSFLQN [GH1_Y68]	0.909	1.06	1.05	0.972	0.465	0.951	0.719	0.978	0.627	0.862	0.692	0.577	0.688	1.18	0.625	0.554
YLNSSYINIST [IL23R_Y178_T175N]	24.6	2.57	4.78	0.875	0.525	0.453	2.69	2.14	0.439	0.799	0.475	0.591	1.23	0.606	0.574	0.436
GIVEDYRPPLY [ACVRL1_Y421_F425L]	0.859	0.783	0.429	0.727	0.382	0.482	0.387	0.608	0.399	0.918	0.455	0.382	0.675	0.393	0.59	0.412
VLPIDYYFPPQ [AR_Y552]	0.962	0.85	1.03	4.75	3.48	3.36	15.4	12.6	0.694	1.08	0.687	0.869	6.26	2.47	1.06	1.28
